The values below come from patent US20210300992A1 (Stanford University, published 2021).

The target in test [1] is T1, human leukemia inhibitory factor (LIF), soluble (human, UniProt P15018 23-202).
T1 construct: also called human LIF; soluble human LIF
Briefly: yeast surface display titration with human LIF, flow cytometry; reference yeast-displayed gp130 WT. On the procedure:
(§1) Binding to human LIF was measured via fluorescent antibody detection using flow cytometry.
Results for gp130 wild-type (WT) (circles), the “8M” variant (E4K-K5R-N14D-K45E-F46L-K83R-Y95D-N100S) (squares), and the ELDME variant (mutations in FIG. 4, panel A) (triangles) are shown.
(Flow cytometry measures light scatter and fluorescence of single cells or particles in a stream.)

For test [2], the target named is T1, human leukemia inhibitory factor (LIF), …. Briefly: yeast surface display titration with human LIF, flow cytometry. The protocol: as §1
The target is the same in test [3]. Description: yeast surface display titration with human LIF, flow cytometry; reference yeast-displayed LIFR WT. The protocol:
as §1
Results for LIFR wild-type (WT) (circles), the “PDD” variant (L218P-N42D-N277D) (squares), and the […] variant (mutations in FIG. 4, panel A) (triangles) are shown.

The target is the same in test [4]. Briefly: KinExA with soluble human LIF; KD calculated by the KinExA software. The protocol: (§2) Binding of the purified LIF inhibitors to soluble LIF was tested using KinExA. Shown in FIG. 10 are binding results for: (1) a homodimer having a WT LIFR CBMI-Ig-like-CBMII Fc fusion as each monomer; (2) a homodimer having LIFR […] Fc as each monomer;
Test [5] shares this target. Description: KinExA, purified Fc fusion with soluble human LIF. For orientation: A kinetic exclusion assay measures how much of one partner remains free in solution.
Test [6] has the same target. Description: KinExA, purified Fc fusion with soluble human LIF; reference LIFR-WT-Fc. The protocol:
as §2
and (3) a homodimer having LIFR-gp130 V-E fusion Fc as each monomer. KD values calculated from KinExA software and fitted curves are shown.

Test [7] has the same target. Description: KinExA with soluble human LIF; inhibitor titrated. The protocol:
as §2

In test [8] the target is T2, wild-type human gp130 CBM domain displayed on the surface of yeast (human, UniProt P40189 124-324).
T2 construct: also called gp130 wild-type (WT); wild-type gp130
T2 chain: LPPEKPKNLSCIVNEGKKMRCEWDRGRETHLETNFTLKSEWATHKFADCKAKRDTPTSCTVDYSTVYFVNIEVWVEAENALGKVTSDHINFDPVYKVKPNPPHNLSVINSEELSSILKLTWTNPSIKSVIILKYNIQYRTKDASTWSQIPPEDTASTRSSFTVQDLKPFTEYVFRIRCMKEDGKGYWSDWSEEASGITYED
Briefly: yeast-displayed receptor, no LIF added, anti-Fc detection by flow cytometry.

Test [9] deals with T3, wild-type human LIFR displayed on the surface of yeast (human, UniProt P42702 45-534, limits assumed).
T3 construct: also called LIFR wild-type (WT); wild-type LIFR
T3 sequence: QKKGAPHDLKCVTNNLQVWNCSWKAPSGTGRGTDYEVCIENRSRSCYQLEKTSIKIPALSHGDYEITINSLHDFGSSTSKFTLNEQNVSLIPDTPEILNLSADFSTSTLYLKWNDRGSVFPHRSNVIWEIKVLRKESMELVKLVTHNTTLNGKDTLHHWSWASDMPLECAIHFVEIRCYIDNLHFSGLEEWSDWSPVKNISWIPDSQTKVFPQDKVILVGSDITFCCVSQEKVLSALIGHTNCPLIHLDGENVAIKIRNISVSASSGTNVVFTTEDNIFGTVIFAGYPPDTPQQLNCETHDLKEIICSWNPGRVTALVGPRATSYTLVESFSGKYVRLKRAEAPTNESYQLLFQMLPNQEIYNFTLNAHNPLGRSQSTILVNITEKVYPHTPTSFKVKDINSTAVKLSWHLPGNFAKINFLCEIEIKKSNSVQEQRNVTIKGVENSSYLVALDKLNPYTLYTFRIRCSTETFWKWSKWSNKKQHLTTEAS
The description is as above.

Test [10] deals with T1, human leukemia inhibitory factor (LIF), …. Description: cell-based or functional assay.
The target in a further test is T4, human LIF-His (human, UniProt P15018 23-202).
T4 construct: also called soluble LIF-His; not shown: His6 tag
Description: competition on yeast: displayed wild-type LIFR or gp130 saturated with LIF-His, inhibitor added in excess; anti-His signal normalized to LIF alone. On the procedure: FIG. 14 LIF inhibitors compete LIF away from wild-type receptors. Panel A: Schematic illustration of competitive binding assay. […] Human LIF-His is incubated at saturating concentrations. Inhibitors (LIFR-[…]-Fc depicted) are then co-incubated with LIF-bound yeast, in excess. LIF binding is detected via His6-tag on LIF. The less LIF that remains bound after inhibitor incubation, the better the inhibitor is able to compete LIF away from the WT receptor. Panel B: Results from competitive binding experiment. […] Fraction bound is the fluorescent emission detected from the LIF-His, normalized to No Inhibitor added. Competitive binding of LIFR-WT-Fc, gp130-ELDME-Fc (Eng.), LIFR-[…]-Fc (Eng.), LIFR-gp130 Fusion-Fc (Eng.), LIFR-gp130 Heterodimeric Fc (Eng.), Anti-LIF mAb L1, and Anti-LIF mAb G1 are shown.
Human LIF-His is introduced at saturating concentrations. Inhibitors (LIFR-[…]-Fc depicted) are then co-incubated with LIF-bound yeast, in excess. LIF binding is detected via His6-tag on LIF. The less LIF that remains bound after inhibitor incubation, the better the inhibitor is able to compete LIF away from the WT receptor.

B1: gp130 ELDME variant displayed on the surface of yeast (receptor)
chain: LPPEKPKNLSCIVNEGKKMRCEWDRGRETHLETNFTLKSEWATHELADCKAKRDTPTSCTVDYSTVYFVNIEVWVEAENALGKVTSDHINFDPVDKVKPNPPHNLSVINSEELSSILKLTWTNPSIKSVMILKYNIQYRTKDASTWSQIPPEDTASTRSSFTVQDLKPFTEYVFRIRCMKEDGEGYWSDWSEEASGITYED
notes: also called K45E-F46L-Y95D-I130M-K184E
Take B1: in test [1], the “fold higher affinity compared to wild-type (WT)” value is 12 fold. Besides, binding in [2] was characterised by a dissociation constant (Kd) of 5 nM.

B2: LIFR VPRVVAID variant displayed on the surface of yeast (receptor)
chain: QKKGAPHDLKCVTNNLQVWNCSWKAPSGTGRGTDYEVCIENRSRSCYQLEKTSIKIPALSHGDYEITINSLHDFGSSTSKFTLNEQNVSLIPDTPEILNLSADFSTSTLYLKWNDRGSVFPHRSNVIWEIKVLRKESMELVKLVTHNTTLNGKDTLHHWSWASDMPLECAIHFVEIRCYIDNLHFSGLEEWSDWSPVKNISWIPDSQTKVFPQDKVVPVGSDITFCCVSQEKVLSALIGRTNCPLIHLDGENVAIKVRNVSASASSGTNVVFITEDDIFGTVIFAGYPPDTPQQLNCETHDLKEIICSWNPGRVTALVGPRATSYTLVESFSGKYVRLKRAEAPTNESYQLLFQMLPNQEIYNFTLNAHNPLGRSQSTILVNITEKVYPHTPTSFKVKDINSTAVKLSWHLPGNFAKINFLCEIEIKKSNSVQEQRNVTIKGVENSSYLVALDKLNPYTLYTFRIRCSTETFWKWSKWSNKKQHLTTEAS
notes: also called I217V-L218P-H240R-I257V-I206V-V262A-T2711-N277D
Take B2: the “fold higher affinity compared to wild-type (WT)” value in [3] turned out to be 32 fold. In test [2], binding was characterised by a dissociation constant (Kd) of 0.03 nM.

B3: LIFR CBMI-Ig-like-CBMII (VPRVVAID) Fc fusion homodimer (Fc fusion)
chain: QKKGAPHDLKCVTNNLQVWNCSWKAPSGTGRGTDYEVCIENRSRSCYQLEKTSIKIPALSHGDYEITINSLHDFGSSTSKFTLNEQNVSLIPDTPEILNLSADFSTSTLYLKWNDRGSVFPHRSNVIWEIKVLRKESMELVKLVTHNTTLNGKDTLHHWSWASDMPLECAIHFVEIRCYIDNLHFSGLEEWSDWSPVKNISWIPDSQTKVFPQDKVVPVGSDITFCCVSQEKVLSALIGRTDCPLIHLDGENVAIKVRNVSASASSGTNVVFITEDDIFGTVIFAGYPPDTPQGSQLNCETHDLKEIICSWNPGRVTALVGPRATSYTLVESFSGKYVRLKRAEAPTNESYQLLFQMLPNQEIYNFTLNAHNPLGRSQSTILVNITEKVYPHTPTSFKVKDINSTAVKLSWHLPGNFAKINFLCEIEIKKSNSVQEQRNVTIKGVENSSYLVALDKLNPYTLYTFRIRCSTETFWKWSKWSNKKQHLTTEASGSGSGSDKTHTCPPCPAPELLGGPSVFLFPPKPKDTLMISRTPEVTCVVVDVSHEDPQVKFNWYVDGVQVHNAKTKPREQQYNSTYRVVSVLTVLHQNWLDGKEYKCKVSNKALPAPIEKTISKAKGQPREPQVYTLPPSREEMTKNQVSLTCLVKGFYPSDIAVEWESNGQPENNYKTTPPVLDSDGSFFLYSKLTVDKSRWQQGNVFSCSVMHEALHNHYTQKSLSLSPGK
On to B3, for which the equilibrium dissociation constant (Kd) is 0.0231 nM in [4] and 0.023 nM in test [5]. The “fold improvement in affinity over LIFR-WT-Fc” value in [6] is 43 fold. Besides, the “EC50 (read off the curve)” value in [7] was about 0.05 nM. Moreover, the binding result in test [8] and in test [9] was “no binding” throughout. Also, the “IC50, inhibition of LIF derived luciferase activity in HeLa STAT3 luciferase reporter cells” value in test [10] is 0.035 nM. For the same molecule, the “fold improvement in IC50 over LIFR WT Fc, inhibition of LIF derived luciferase activity in HeLa reporter cells” value in [10] came out at 53 fold.

B4: gp130 CBM domain (ELDME) Fc fusion homodimer (Fc fusion)
chain: LPPEKPKNLSCIVNEGKKMRCEWDRGRETHLETNFTLKSEWATHELADCKAKRDTPTSCTVDYSTVYFVNIEVWVEAENALGKVTSDHINFDPVDKVKPNPPHNLSVINSEELSSILKLTWTNPSIKSVMILKYNIQYRTKDASTWSQIPPEDTASTRSSFTVQDLKPFTEYVFRIRCMKEDGEGYWSDWSEEASGITYEDGSGSGSDKTHTCPPCPAPELLGGPSVFLFPPKPKDTLMISRTPEVTCVVVDVSHEDPQVKFNWYVDGVQVHNAKTKPREQQYNSTYRVVSVLTVLHQNWLDGKEYKCKVSNKALPAPIEKTISKAKGQPREPQVYTLPPSREEMTKNQVSLTCLVKGFYPSDIAVEWESNGQPENNYKTTPPVLDSDGSFFLYSKLTVDKSRWQQGNVFSCSVMHEALHNHYTQKSLSLSPGK
notes: also called gp130-ELDME-Fc; gp130 ELDME Fc
Consider B4, for which the figures for the binding result (with human LIF-His; in test [8]; in test [9]) were “binds”, “no binding” and “no binding”, respectively.

The term Kd denotes a measure of binding affinity in units of concentration. By EC50 (read off the curve) is commonly meant the concentration that produces a half-maximal response. Lower therefore signals an effect from little substance.
